Numbering of substitutions follows the chain as printed. Names and notes keep the numbering of the source.
What was measured:
Type in all cases: biochemical, B. amyloliquefaciens
[1] = substrate: C[C@H](NC(=O)CCC(=O)O)C(=O)N[C@@H](C)C(=O)N1CCC[C@H]1C(=O)N[C@@H](C)C(=O)Nc1ccc([N+](=O)[O-])cc1; test: Kinetics of hydrolysis of succinyl-Ala-Ala-Pro-X-p-nitroanilide substrates (progress curve analysis)
From the text: (§1) A change in substrate specificity is defined as a difference between the kcat/Km ratio of the precursor carbonyl hydrolase and that of the hydrolase mutant. The kcat/Km ratio is a measure of catalytic efficienty. Carbonyl hydrolase mutants with increased or diminished kcat/Km ratios are described in the examples. Generally, the objective will be to secure a mutant having a greater (numerically large) kcat/Km ratio for a given substrate, thereby enabling the use of the enzyme to more efficiently act on a target substrate. A substantial change in kcat/Km ratio is preferably at least 2-fold increase or decrease. However, smaller increases or decreases in the ratio (e.g., at least 1.5-fold) are also considered substantial. An increase in kcat/Km ratio for one substrate may be accompanied by a reduction in kcat/Km ratio for another substrate. […] Km and kcat are measured in accord with known procedures, as described in EPO Publication No. 0130756 or as described herein.
(§2) Wild-type subtilisin was purified from B. subtilis culture supernatants expressing the B. amyloliquefaciens subtilisin gene (Wells, J.A., et al. (1983) Nucleic Acids Res. 11, 7911-7925) as previously described (Estell, D.A., et al. (1985) J. Biol. Chem. 260, 6518-6521). Details of the synthesis of tetrapeptide substrates having the form succinyl-L-AlaL-AlaL-ProL-[X]-p-nitroanilide (where X is the P1 amino acid) are described by DelMar, E.G., et al. (1979) Anal. Biochem. 99, 316-320. Kinetic parameters, Km(M) and kcat-(s-^1) were measured using a modified progress curve analysis (Estell, D.A., et al. (1985) J. Biol. Chem. 260, 6518-6521). Briefly, plots of rate versus product concentration were fit to the differential form of the rate equation using a non-linear regression algorithm. Errors in kcat and Km for all values reported are less than five percent. The various substrates in Table VIII are ranged in order of decreasing hydrophobicity. Nozaki, Y. (1971), J. Biol. Chem. 246, 2211-2217; Tanford C. (1978) Science 200, 1012).

[2] = substrate: C[C@H](NC(=O)CCC(=O)O)C(=O)N[C@@H](C)C(=O)N1CCC[C@H]1C(=O)N[C@@H](CCC(N)=O)C(=O)Nc1ccc([N+](=O)[O-])cc1; test: as above; conditions: other: Table XIV, 156 Glu / 166 Gly(wt); value in parentheses; synthetic substrate with label as P-1 amino acid
From the text: as §1, §2

[3] = substrate: C[C@H](NC(=O)[C@H](Cc1ccccc1)NC(=O)CCC(=O)O)C(=O)N1CCC[C@H]1C(=O)N[C@@H](Cc1ccccc1)C(=O)Nc1ccc([N+](=O)[O-])cc1; test: as above; conditions: other: Table XI, WT
From the text: as §1, §2

[4] = substrate: C[C@H](NC(=O)CCC(=O)O)C(=O)N[C@@H](C)C(=O)N1CCC[C@H]1C(=O)NCC(=O)Nc1ccc([N+](=O)[O-])cc1; test: as above; conditions: other: Table VIII; substrate succinyl-L-AlaL-AlaL-ProL-[X]-p-nitroanilide, X = label (P1 amino acid)
From the text: as §1, §2

[5] = substrate: C[C@H](NC(=O)CCC(=O)O)C(=O)N[C@@H](C)C(=O)N1CCC[C@H]1C(=O)N[C@@H](CCCCN)C(=O)Nc1ccc([N+](=O)[O-])cc1; test: as above; conditions: other: Table XIV, 156 Glu / 166 Gly(wt); value in parentheses; synthetic substrate with label as P-1 amino acid
From the text: as §1, §2

[6] = substrate: C[C@H](NC(=O)CCC(=O)O)C(=O)N[C@@H](C)C(=O)N1CCC[C@H]1C(=O)N[C@@H](Cc1ccc(O)cc1)C(=O)Nc1ccc([N+](=O)[O-])cc1; test: as above; conditions: other: Table VIII; substrate succinyl-L-AlaL-AlaL-ProL-[X]-p-nitroanilide, X = label (P1 amino acid)
From the text: as §1, §2

[7] = substrate: C[C@H](NC(=O)CCC(=O)O)C(=O)N[C@@H](C)C(=O)N1CCC[C@H]1C(=O)N[C@@H](CCC(=O)O)C(=O)Nc1ccc([N+](=O)[O-])cc1; test: as above
From the text: as §1, §2

[8] = substrate: CSCC[C@H](NC(=O)[C@@H]1CCCN1C(=O)[C@H](C)NC(=O)[C@H](C)NC(=O)CCC(=O)O)C(=O)Nc1ccc([N+](=O)[O-])cc1; test: as above; conditions: other: Table XIV, 156 Glu / 166 Gly(wt); value in parentheses; synthetic substrate with label as P-1 amino acid
From the text: as §1, §2

[9] = substrate: C[C@H](NC(=O)CCC(=O)O)C(=O)N[C@@H](C)C(=O)N1CCC[C@H]1C(=O)N[C@@H](Cc1c[nH]cn1)C(=O)Nc1ccc([N+](=O)[O-])cc1; test: as above; conditions: other: Table VIII; substrate succinyl-L-AlaL-AlaL-ProL-[X]-p-nitroanilide, X = label (P1 amino acid)
From the text: as §1, §2

[10] = substrate: C[C@H](NC(=O)CCC(=O)O)C(=O)N[C@@H](C)C(=O)N1CCC[C@H]1C(=O)N[C@@H](CO)C(=O)Nc1ccc([N+](=O)[O-])cc1; test: as above; conditions: other: Table VIII; substrate succinyl-L-AlaL-AlaL-ProL-[X]-p-nitroanilide, X = label (P1 amino acid)
From the text: as §1, §2

[11] = substrate: C[C@H](NC(=O)CCC(=O)O)C(=O)N[C@@H](C)C(=O)N1CCC[C@H]1C(=O)N[C@@H](Cc1ccccc1)C(=O)Nc1ccc([N+](=O)[O-])cc1; test: as above; conditions: other: Table V; substrate not given; Km in M
From the text: as §1, §2

[12] = substrate: C[C@H](NC(=O)[C@@H]1CCCN1C(=O)[C@H](C)NC(=O)[C@H](Cc1ccccc1)NC(=O)CCC(=O)O)C(=O)Nc1ccc([N+](=O)[O-])cc1; test: as above; conditions: other: Table XI, WT
From the text: as §1, §2

[13] = substrate: CC(C)C[C@H](NC(=O)[C@@H]1CCCN1C(=O)[C@H](C)NC(=O)[C@H](C)NC(=O)CCC(=O)O)C(=O)Nc1ccc([N+](=O)[O-])cc1; test: as above; conditions: other: Table VIII; substrate succinyl-L-AlaL-AlaL-ProL-[X]-p-nitroanilide, X = label (P1 amino acid)
From the text: as §1, §2

[14] = substrate: C[C@H](NC(=O)CCC(=O)O)C(=O)N[C@@H](C)C(=O)N1CCC[C@H]1C(=O)N[C@@H](CCC(N)=O)C(=O)Nc1ccc([N+](=O)[O-])cc1; test: Kinetics of p-nitroanilide substrate hydrolysis, M166; conditions: other: Table XIV, 156 Glu / 166 Met; value in parentheses; synthetic substrate with label as P-1 amino acid
From the text: as §2
(§3) To probe the change in substrate specificity caused by steric alterations in the S-1 subsite, position 166 mutants were kinetically analyzed versus P1 substrates of increasing size (i.e., Ala, Met, Phe and Tyr). Ratios of kcat/Km are presented in log form in Figure 15 to allow direct comparisons of transition-state binding energies between various enzyme-substrate pairs.
(§4) To isolate the contribution of electrostatics to substrate specificity from other chemical binding forces, these various single and double mutants were analyzed for their ability to bind and cleave synthetic substrates containing Glu, Gln, Met and Lys as the P-1 substrate amino acid. This permitted comparisons between side-chains that were more sterically similar but differed in charge (e.g., Glu versus Gln, Lys versus Met). Similarly, mutant enzymes were assayed against homologous P-1 substrates that were most sterically similar but differed in charge (Table XIV).
(§5) The kcat/Km ratios shown are the second order rate constants for the conversion of substrate to product, and represent the catalytic efficiency of the enzyme. These ratios are presented in logarithmic form to scale the data, and because log kcat/Km is proportional to the lowering of transition-state activation energy (△GT). Mutations at position 156 and 166 produce changes in catalytic efficiency toward Glu, Gln, Met and Lys P-1 substrates of 3100, 60, 200 and 20 fold, respectively.

[15] = substrate: C[C@H](NC(=O)CCC(=O)O)C(=O)N[C@@H](C)C(=O)N1CCC[C@H]1C(=O)N[C@@H](CCCCN)C(=O)Nc1ccc([N+](=O)[O-])cc1; test: as above; conditions: other: Table XIV, 156 Glu / 166 Met; value in parentheses; synthetic substrate with label as P-1 amino acid
From the text: as §2, §3, §4, §5

[16] = substrate: C[C@H](NC(=O)CCC(=O)O)C(=O)N[C@@H](C)C(=O)N1CCC[C@H]1C(=O)N[C@@H](CCC(=O)O)C(=O)Nc1ccc([N+](=O)[O-])cc1; test: as above; conditions: other: Table XIV, 156 Glu / 166 Met; value in parentheses; synthetic substrate with label as P-1 amino acid
From the text: as §2, §3, §4, §5

[17] = substrate: CSCC[C@H](NC(=O)[C@@H]1CCCN1C(=O)[C@H](C)NC(=O)[C@H](C)NC(=O)CCC(=O)O)C(=O)Nc1ccc([N+](=O)[O-])cc1; test: as above; conditions: other: Table XIV, 156 Glu / 166 Met; value in parentheses; synthetic substrate with label as P-1 amino acid
From the text: as §2, §3, §4, §5

[18] = other: Table VIII, substrate succinyl-L-AlaL-AlaL-ProL-[X]-p-nitroanilide, X = label (P1 amino acid)
[19] = other: Table XIII, Glu156/Gly166 (WT), synthetic substrate with label as P-1 residue

B1: B. amyloliquefaciens subtilisin, wild type (WT, Gly166) (Bacillus amyloliquefaciens) (protein)
chain: AQSVPYGVSQIKAPALHSQGYTGSNVKVAVIDSGIDSSHPDLKVAGGASMVPSETNPFQDNNSHGTHVAGTVAALNNSIGVLGVAPSASLYAVKVLGADGSGQYSWIINGIEWAIANNMDVINMSLGGPSGSAALKAAVDKAVASGVVVVAAAGNEGTSGSSSTVGYPGKYPSVIAVGAVDSSNQRASFSSVGPELDVMAPGVSIQSTLPGNKYGAYNGTSMASPHVAGAAALILSKHPNWTNTQVRSSLENTTTKLGDSFYYGKGLINVQAAAQ
notes: at various amino acid residues within the mature form of the subtilisin molecule; made in house; host or cells: Bacillus subtilis (secreted, culture supernatant)
For B1, the kcat [1, 18] was 1.9 S^-1, the kcat/Km [1, 18] was 11,000 s-^1M-1 and the Km ([1]; other: Table XI, WT) was 230 µM. The kcat ([1]; other: Table XI, WT) was 3.2 s-^1, the kcat/Km ([1]; other: Table XI, WT) was 14000 M⁻¹ s⁻¹ and the Km [2] was 447 µM. For the same protein, the kcat [2] was 3.2 S^-1, the kcat/Km [2] was 7,100 s-^1M-1 and the Km [3] was 180 µM. The kcat [3] was 26.0 s-^1, the kcat/Km [3] was 150000 M⁻¹ s⁻¹ and the kcat [4] was 0.003 S^-1. For the same protein, the kcat/Km [4] was 21 s-^1M-1, the Km [5] was 741 µM and the kcat [6] was 28 S^-1. For the same protein, the kcat/Km [6] was 1,100,000 s-^1M-1, the Km [7, 19] was 34000 µM and the kcat [7, 19] was 0.54 s-^1. The kcat/Km [7, 19] was 16 M⁻¹ s⁻¹, the Km ([7]; other: Table XIV, 156 Glu / 166 Gly(wt), value in parentheses, synthetic substrate with label as P-1 amino acid) was 33900 µM and the Km [8] was 107 µM. The kcat [8] was 13 S^-1, the kcat/Km [8] was 120,000 s-^1M-1 and the kcat [9] was 7.9 S^-1. For the same protein, the kcat/Km [9] was 13,000 s-^1M-1, the kcat [10] was 2.8 S^-1 and the kcat/Km [10] was 4,200 s-^1M-1. For the same protein, the Km [11] was 140 µM, the kcat [11] was 50.0 s-^1 and the kcat/Km [11] was 360000 M⁻¹ s⁻¹. For the same protein, the Km [12] was 73 µM, the kcat [12] was 0.32 s-^1 and the kcat/Km [12] was 4400 M⁻¹ s⁻¹. The kcat [13] was 24 S^-1 and the kcat/Km [13] was 75,000 s-^1M-1.

B2: B. amyloliquefaciens subtilisin variant Glu156/M166 (Gly166 to Met) (Bacillus amyloliquefaciens; G273M) (protein)
chain: B1 chain with G166M
notes: at various amino acid residues within the mature form of the subtilisin molecule; made in house; host or cells: Bacillus subtilis BG2036
For B2, the Km [14] was 646 µM, the Km [15] was 129 µM and the Km [16] was 5010 µM. It also gave a Km [17] of 14.8 µM.
